Measured values published in doi:10.1101/2022.11.25.517900 (bioRxiv, 2022).

Molecular target: the molecule itself
Assay: cryo-EM structure

B1: Vibrio alginolyticus PomB, full length, non-cleaved (without protease site insertion) (natural protein, UniProt O06874 1-315, looked up)
chain: MDDEDNKCDCPPPGLPLWMGTFADLMSLLMCFFVLLLSFSEMDVLKFKQIAGSMKFAFGVQNQLEVKDIPKGTSIIAQEFRPGRPEPTPIDVIMQQTMDITQQTLEFHEGESDRAGGTKRDEGKLTGGQSPATSTQNNESAEADMQQQQSKEMSQEMETLMESIKKALEREIEQGAIEVENLGQQIVIRMREKGAFPEGSAFLQPKFRPLVRQIAELVKDVPGIVRVSGHTDNRPLDSELYRSNWDLSSQRAVSVAQEMEKVRGFSHQRLRVRGMADTEPLLPNDSDDNRALNRRVEISIMQGEPLYSEEVPVIQ
- binding result: binds
